According to IntAct's records for PubMed 18723617:

B1: Motility protein B (Salmonella typhimurium), P55892 (parent)
chain: MKNQAHPIVVVKRRRHKPHGGGAHGSWKIAYADFMTAMMAFFLVMWLISISSPKELIQIAEYFRTPLATAVTGGNRIANSESPIPGGGDDYTQQQGEVEKQPNIDELKKRMEQSRLNKLRGDLDQLIESDPKLRALRPHLKIDLVQEGLRIQIIDSQNRPMFKTGSAEVEPYMRDILRAIAPVLNGIPNRISLAGHTDDFPYANGEKGYSNWELSADRANASRRELVAGGLDNGKVLRVVGMAATMRLSDRGPDDAINRRISLLVLNKQAEQAILHENAESQNEPVSVLQQPAAAPPASVPTSPKAEPR
partner: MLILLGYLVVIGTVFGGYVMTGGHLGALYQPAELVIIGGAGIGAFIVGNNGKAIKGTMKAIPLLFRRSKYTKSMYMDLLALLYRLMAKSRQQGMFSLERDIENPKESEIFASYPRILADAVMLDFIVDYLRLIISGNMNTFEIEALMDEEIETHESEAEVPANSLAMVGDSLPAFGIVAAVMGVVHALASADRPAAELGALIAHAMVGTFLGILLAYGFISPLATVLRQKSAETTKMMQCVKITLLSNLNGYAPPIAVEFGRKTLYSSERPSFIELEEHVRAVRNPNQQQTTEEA

Variants of: B1
Details: with mota_salty motA

Row | Variant | effect of a mutation on the interaction
1 | D33E | decreasing interaction strength
